The results in this text go back to the supplement of paper PMC5998384.

Series [1] concerns HeLa Kyoto. Briefly: solubility change mitosis vs G1/S (difference of NP-40 vs SDS log2 ratios) (log2 ratio difference); higher = more soluble in mitosis.
Series [2] concerns HeLa Kyoto. Briefly: melting temperature (median over replicates), in situ; higher = more thermally stable.
Series [3] relates to HeLa Kyoto. As to the kind of experiment: thermal stability score vs G1/S (z-score of summed log2 fold changes over temperatures); higher = more thermally stable than in G1/S.
The test system of series [4] is HeLa Kyoto. Briefly: solubility in G1/S (NP-40 vs SDS abundance) (log2 ratio); higher = more soluble. The note with it: cell cycle stage: G1/S.
Setting [5] is: cell cycle stage: early G1 (4.5 h after nocodazole release).
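For melting temperature (median over replicates), in situ in this document: HeLa Kyoto cells synchronized by double thymidine or nocodazole block, proteins quantified by TMT10plex mass spectrometry, three independent biological replicates.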
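For solubility change mitosis vs G1/S (difference of NP-40 vs SDS log2 ratios) in this document: synchronized HeLa Kyoto cells (double thymidine block for G1/S, nocodazole release for mitosis), protein amounts in NP-40 versus SDS lysates quantified by mass spectrometry, three biological replicates.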
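For solubility in G1/S (NP-40 vs SDS abundance) in this document: HeLa Kyoto cells arrested at G1/S by double thymidine block, proteins quantified by TMT10plex mass spectrometry in mild NP-40 versus SDS extracts, three biological replicates.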
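For thermal stability score vs G1/S (z-score of summed log2 fold changes over temperatures) in this document: synchronized HeLa Kyoto cells, proteins quantified by TMT10plex mass spectrometry, three biological replicates, mitosis taken 0.5 h after nocodazole release, G1/S directly after double thymidine block.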

Regarding “MEGISNFKTPSKLSEKKKSVLCSTPTINIPASPFMQKLGFGTGVNVYLMKRSPRGLSHSPWAVKKINPICNDHYRSVYQKRLMDEAKILKSLHHPNIVGYRAFTEANDGSLCLAMEYGGEKSLNDLIEERYKASQDPFPAAIILKVALNMARGLKYLHQEKKLLHGDIKSSNVVIKGDFETIKICDVGVSLPLDENMTVTDPEACYIGTEPWKPKEAVEENGVITDKADIFAFGLTLWEMMTLSIPHINLSNDDDDEDKTFDESDFDDEAYYAALGTRPPINMEELDESYQKVIELFSVCTNEDPKDRPSAAHIVEALETDV [PBK]”, in the series with HeLa Kyoto [1], the “solubility change mitosis (log2)” value worked out at 0.0797. For the same sequence, the figures for the melting temperature in the series on HeLa Kyoto [2] (cell cycle stage: G1/S) and in the series on HeLa Kyoto [2] (cell cycle stage: mitosis) were 47.7 °C and 47.6 °C, respectively. The results for the thermal stability score in the series with HeLa Kyoto [3] (setting [5]) and in the series on HeLa Kyoto [3] (cell cycle stage: mitosis) were 1.05 and 3.4, respectively. The “solubility in G1/S (log2)” value in the series with HeLa Kyoto [4] turned out to be 0.0996.
For “MEGPGLGSQCRNHSHGPHPPGFGRYGICAHENKELANAREALPLIEDSSNCDIVKATQYGIFERCKELVEAGYDVRQPDKENVSLLHWAAINNRLDLVKFYISKGAVVDQLGGDLNSTPLHWAIRQGHLPMVILLLQHGADPTLIDGEGFSSIHLAVLFQHMPIIAYLISKGQSVNMTDVNGQTPLMLSAHKVIGPEPTGFLLKFNPSLNVVDKIHQNTPLHWAVAAGNVNAVDKLLEAGSSLDIQNVKGETPLDMALQNKNQLIIHMLKTEAKMRANQKFRLWRWLQKCELFLLLMLSVITMWAIGYILDFNSDSWLLKGCLLVTLFFLTSLFPRFLVGYKNLVYLPTAFLLSSVFWIFMTWFILFFPDLAGAPFYFSFIFSIVAFLYFFYKTWATDPGFTKASEEEKKVNIITLAETGSLDFRTFCTSCLIRKPLRSLHCHVCNCCVARYDQHCLWTGRCIGFGNHHYYIFFLFFLSMVCGWIIYGSFIYLSSHCATTFKEDGLWTYLNQIVACSPWVLYILMLATFHFSWSTFLLLNQLFQIAFLGLTSHERISLQKQSKHMKQTLSLRKTPYNLGFMQNLADFFQCGCFGLVKPCVVDWTSQYTMVFHPAREKVLRSV [ZDHHC13]”, the “solubility change mitosis (log2)” value in the series on HeLa Kyoto [1] was -0.158. The values for the melting temperature in the series with HeLa Kyoto [2] (cell cycle stage: G1/S) and in the series with HeLa Kyoto [2] (cell cycle stage: mitosis) were 51.6 °C and 51.4 °C, respectively. The figures for the thermal stability score in the series on HeLa Kyoto [3] (setting [5]) and with HeLa Kyoto [3] (cell cycle stage: mitosis) were -0.948 and -1.02, respectively. The “solubility in G1/S (log2)” value with HeLa Kyoto [4] is 0.0826.
For “MEGSLEREAPAGALAAVLKHSSTLPPESTQVRGYDFNRGVNYRALLEAFGTTGFQATNFGRAVQQVNAMIEKKLEPLSQDEDQHADLTQSRRPLTSCTIFLGYTSNLISSGIRETIRYLVQHNMVDVLVTTAGGVEEDLIKCLAPTYLGEFSLRGKELRENGINRIGNLLVPNENYCKFEDWLMPILDQMVMEQNTEGVKWTPSKMIARLGKEINNPESVYYWAQKNHIPVFSPALTDGSLGDMIFFHSYKNPGLVLDIVEDLRLINTQAIFAKCTGMIILGGGVVKHHIANANLMRNGADYAVYINTAQEFDGSDSGARPDEAVSWGKIRVDAQPVKVYADASLVFPLLVAETFAQKMDAFMHEKNED [DHPS]”, in the series on HeLa Kyoto [1], the “solubility change mitosis (log2)” value was -0.0341. The results for the melting temperature in the series on HeLa Kyoto [2] (cell cycle stage: G1/S) and with HeLa Kyoto [2] (cell cycle stage: mitosis) were 56.2 °C and 56.8 °C, respectively. Besides, the thermal stability score in the series with HeLa Kyoto [3] (setting [5]) is -0.0223; in the series on HeLa Kyoto [3] (cell cycle stage: mitosis) it was -1.85. Besides, the “solubility in G1/S (log2)” value with HeLa Kyoto [4] was 0.164.
Regarding “MEKFGMNFGGGPSKKDLLETIETQKKQLLQYQARLKDVVRAYKSLLKEKEALEASIKVLSVSHEADVGLAGVQLPGLTFPDSVDDRCSTHSEDSTGTATSLDTAASLTSTKGEFGVEDDRPARGPPPPKSEEASWSESGVSSSSGDGPFAGGEVDKRLHQLKTQLATLTSSLATVTQEKSRMEASYLADKKKMKQDLEDASNKAEEERARLEGELKGLQEQIAETKARLITQQHDRAQEQSDHALMLRELQKLLQEERTQRQDLELRLEETREALAGRAYAAEQMEGFELQTKQLTREVEELKSELQAIRDEKNQPDPRLQELQEEAARLKSHFQAQLQQEMRKTALAEDQLRQQSQVEEQRVAALENQISEVSELLGTYEKAKQKDQLAIQKLKERILQLDLENKTLALAASSRSPLDSHGEESSLDVNVLKDKMEKLKRLLQVAARKSQVTLDVEKLCDLEIMPSSEAADGEKATALYYQQELKQLKEEFERYKMRAQVVLKSKNTKDGNLGKELEAAQEQLAELKEKYISLRLSCEELEHQHQQEADDWKQELARLQQLHRQELERCQLDFRDRTLKLEEELHKQRDRALAVLTEKDLELEQLRSVALASGLPGRRSPVGGGGPGDPADTSSSDSLTQALQLAAANEPTFFLYAEQLARKEVEITSLRKQKHRLEVEVHQLQDRLLEEGERHREEVAALQSHIEKNIRDQSREGANLEYLKNIIYRFLTLPDSLGRQQTLTAILTILHFSPEEKQVIMRLPTSASWWPSGKR [GCC1]”, in the series on HeLa Kyoto [1], the “solubility change mitosis (log2)” value is -0.114. Further, the melting temperature in the series with HeLa Kyoto [2] (cell cycle stage: G1/S) amounted to 48.7 °C; with HeLa Kyoto [2] (cell cycle stage: mitosis), 51.5 °C. Moreover, the values for the thermal stability score with HeLa Kyoto [3] (setting [5]) and in the series with HeLa Kyoto [3] (cell cycle stage: mitosis) were -0.43 and 0.117, respectively. Further, the “solubility in G1/S (log2)” value in the series on HeLa Kyoto [4] turned out to be 0.527.
Take “MEKILQMAEGIDIGEMPSYDLVLSKPSKGQKRHLSTCDGQNPPKKQAGSKFHARPRFEPVHFVASSSKDERQEDPYGPQTKEVNEQTHFASMPRDIYQDYTQDSFSIQDGNSQYCDSSGFILTKDQPVTANMYFDSGNPAPSTTSQQANSQSTPEPSPSQTFPESVVAEKQYFIEKLTATIWKNLSNPEMTSGSDKINYTYMLTRCIQACKTNPEYIYAPLKEIPPADIPKNKKLLTDGYACEVRCQNIYLTTGYAGSKNGSRDRATELAVKLLQKRIEVRVVRRKFKHTFGEDLVVCQIGMSSYEFPPALKPPEDLVVLGKDASGQPIFNASAKHWTNFVITENANDAIGILNNSASFNKMSIEYKYEMMPNRTWRCRVFLQDHCLAEGYGTKKTSKHAAADEALKILQKTQPTYPSVKSSQCHTGSSPRGSGKKKDIKDLVVYENSSNPVCTLNDTAQFNRMTVEYVYERMTGLRWKCKVILESEVIAEAVGVKKTVKYEAAGEAVKTLKKTQPTVINNLKKGAVEDVISRNEIQGRSAEEAYKQQIKEDNIGNQLLRKMGWTGGGLGKSGEGIREPISVKEQHKREGLGLDVERVNKIAKRDIEQIIRNYARSESHTDLTFSRELTNDERKQIHQIAQKYGLKSKSHGVGHDRYLVVGRKRRKEDLLDQLKQEGQVGHYELVMPQAN [NKRF]”: in the series on HeLa Kyoto [1], the “solubility change mitosis (log2)” value was 0.226. For the same sequence, the melting temperature in the series on HeLa Kyoto [2] (cell cycle stage: G1/S) is 44.4 °C; in the series on HeLa Kyoto [2] (cell cycle stage: mitosis), 48 °C. The thermal stability score came out at 3.45 in the series on HeLa Kyoto [3] (setting [5]) and 6.93 with HeLa Kyoto [3] (cell cycle stage: mitosis). Further, the “solubility in G1/S (log2)” value in the series with HeLa Kyoto [4] was -0.517.
